# Where no end group is shown, it is not given here. [ ]: non-standard residue; d: D form. Arg(Me2a) = CN(C)C(=N)NCCC[C@H](N)C(=O)O; Arg(Me) = CNC(=N)NCCC[C@H](N)C(=O)O
# T1: TRIM66-WT965-1160 (Homo sapiens, UniProt O15016)
# T1 construct: ITC titration: titrating TRIM66-WT965-1160 with various histone H3 peptides; GST (N, cleaved yes); made in house; host or cells: Escherichia coli BL21 (DE3)
# T1 sequence (O15016 1100-1295): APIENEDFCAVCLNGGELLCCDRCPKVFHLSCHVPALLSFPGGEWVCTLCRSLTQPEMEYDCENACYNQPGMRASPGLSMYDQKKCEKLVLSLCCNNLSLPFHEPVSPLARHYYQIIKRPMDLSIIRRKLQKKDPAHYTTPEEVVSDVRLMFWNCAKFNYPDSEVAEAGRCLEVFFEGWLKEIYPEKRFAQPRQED
# T2: TRIM33_(882-1087) (PHD-Bromodomain) (human, UniProt Q9UPN9 882-1087)
# T2 construct: also called TRIM33 PHD-Bromo; source: E. coli BL21 (DE3), purified (Ni column, SUMO protease, second Ni column, Superdex 75)
# T2 sequence (looked up): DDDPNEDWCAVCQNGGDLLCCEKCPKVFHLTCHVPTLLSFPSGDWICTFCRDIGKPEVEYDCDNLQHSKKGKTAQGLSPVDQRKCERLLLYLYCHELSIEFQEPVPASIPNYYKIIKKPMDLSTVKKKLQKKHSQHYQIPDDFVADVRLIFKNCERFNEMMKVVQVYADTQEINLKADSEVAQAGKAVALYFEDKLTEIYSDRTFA
# T3: TRIM24_(824-1006) (PHD-Bromodomain) (human, UniProt O15164 824-1006)
# T3 construct: TRIM24 PHD-Bromodomain, Homo sapiens, residues 824-1006 of UniProt O15164 (Isoform long); also called TRIM24-PHD-Bromo; source: E. coli BL21 (DE3), purified (Ni column, SUMO protease, second Ni column, Superdex 75)
# T3 sequence (looked up): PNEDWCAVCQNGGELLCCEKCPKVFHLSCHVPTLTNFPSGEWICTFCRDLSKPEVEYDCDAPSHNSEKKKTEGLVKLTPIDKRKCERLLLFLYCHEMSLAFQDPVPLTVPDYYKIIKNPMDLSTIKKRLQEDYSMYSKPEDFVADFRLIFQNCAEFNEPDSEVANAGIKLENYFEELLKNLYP
# T4: TRIM24_(824-1006) (human, UniProt O15164 824-1006)
# T4 construct: TRIM24, human, PHD-Bromodomain, residues 824-1006, amplified from a human bone marrow cDNA library, in pET-SUMO-28a (+); also called TRIM24-PHD-Bromo; TRIM24 PHD-Bromodomain; source: E. coli BL21 (DE3), purified (Ni-chelating column, SUMO protease, second nickel column, Superdex 75)
# T4 sequence (looked up): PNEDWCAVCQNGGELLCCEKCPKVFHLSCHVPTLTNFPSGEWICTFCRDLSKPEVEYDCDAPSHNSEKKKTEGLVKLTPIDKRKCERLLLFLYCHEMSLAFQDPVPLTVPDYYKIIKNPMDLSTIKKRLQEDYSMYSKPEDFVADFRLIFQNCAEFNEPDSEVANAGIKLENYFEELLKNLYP
# T5: TRIM33_(882-1087) (human, UniProt Q9UPN9 882-1087)
# T5 construct: also called TRIM33 PHD-Bromo; TRIM33 PHD-Bromodomain; source: E. coli BL21 (DE3), purified (Ni-chelating column, SUMO protease, second nickel column, Superdex 75)
# T5 sequence (looked up): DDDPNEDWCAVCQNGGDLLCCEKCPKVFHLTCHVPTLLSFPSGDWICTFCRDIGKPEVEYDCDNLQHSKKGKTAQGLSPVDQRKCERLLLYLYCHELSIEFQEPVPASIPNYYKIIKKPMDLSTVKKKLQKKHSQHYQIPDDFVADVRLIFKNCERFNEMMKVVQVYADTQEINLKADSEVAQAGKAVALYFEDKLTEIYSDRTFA
# Assays:
# TRIM66-WT965-1160 = biological target: T1, TRIM66-WT965-1160; experiment: ITC, PHD-Bromodomain wild type; assay type: binding; conditions: for Kd / KD: MicroCal PEAQ-ITC, 20 mM Tris, 100 mM NaCl, error from curve fit, Weak binding = ITC curves cannot be fitted reliably, N.D. = no detectable binding
# Description: We next performed the glutathione S-transferase (GST) pulldown assays of the TRIM66-WT965-1160 against the calf thymus histones to verify the histone-binding ability of TRIM66 PHD-Bromodomain. […] The PHD of TRIM66 shared a low conservation with those of ING4, PHF2, and BPTF, and lacked the conserved aromatic residues, which were necessary for binding H3K4me2/3[40]–[42] (Supplementary Fig. 2b). Nevertheless, TRIM66 was highly conserved in sequence and structure with the PHDs of TRIM24 and TRIM33 (Fig. 1c and Supplementary Fig. 2b), which were reported to bind H3K4me0[5],[6]; thus, we speculated that the PHD of TRIM66 could bind H3K4me0. To verify this hypothesis, we performed isothermal titration calorimetry (ITC)-based binding assays. […] Based on previous researches reporting the acetyl-lysine binding partners of Bromodomain[3]–[12], we chose a series of related peptides derived from H3 and H4, to test their interactions with TRIM66-WT965-1160 by ITC experiments. […] We further found the acetylated state of K56 was necessary for this binding (Supplementary Fig. 3b).
# We next titrated the TRIM66-WT965-1160 with a series of R2-methylated H3 peptides through ITC assays. […] This finding was consistent with the structural observation that each NηH atom of the R2 formed a hydrogen bond with residues in protein (Fig. 2d).
# The DNA fragments of human TRIM66_968-1160, TRIM24_824-1006, and TRIM33_882-1087 were amplified from a human bone marrow cDNA library using a PCR-based cloning strategy. The fragments of TRIM66-WT968-1160 were inserted into a pGEX-4T-1 plasmid (GE Healthcare). The fragments of TRIM24_824-1006 and TRIM33_882-1087 were ligated into a pET-SUMO-28a (+) plasmid (Novagen). The DNA fragments of TRIM66-MUT968-1160 and TRIM66-WT965-1160 with codon optimization were synthesized by General Biosystems (sequence was shown in Supplementary Methods) and inserted into a pGEXT-4T-1 plasmid (GE Healthcare). Mutants of TRIM66 PHD-Bromo were generated through PCR using the Mutant Best kit (Takara). The mutation of point mutant based on the codon-optimized DNA sequence of TRIM66-WT965-1160. All constructs were expressed in Escherichia coli BL21 (DE3). The construct of ASF1a1-156 inserted into a pRSFDuet plasmid (courtesy of Ruiming Xu Lab, Institute of Biophysics, Chinese Academy of Sciences) was expressed in E. coli BL21 (DE3) RIL. The construct of full-length H4 inserted into a pET3a plasmid was expressed in E. coli BL21 (DE3). The expression of full-length histone H3K56ac was performed in BL21 (DE3) cells transformed with pBK-AxcKRS3 and pET22b encoding H3 with amber codons at the K56 site[12]. The DNA fragment of full-length TRIM66 was synthesized by General Biosystems and ligated into fugw vector (Addgene). See the information of protein sequence in Supplementary Table 1.
# The calorimetric experiments were performed at 25 °C using a MicroCal PEAQ-ITC. The proteins were dialyzed using a buffer containing 20 mM Tris and 100 mM NaCl at pH 7.5. Lyophilized peptides were dissolved in the same buffer and adjusted to pH 7.5 prior to use. Peptide concentrations were estimated from the quantitative NMR experiments[73],[74]. ITC measurements were performed via injection of 0.7–4 mM peptide into a cell containing 0.12 mM TRIM24-PHD-Bromo, 0.05 mM TRIM33 PHD-Bromo, and 0.05 or 0.11–0.15 mM TRIM66-PHD-Bromo (or its mutants). The ITC data were subsequently analyzed using the MicroCal PEAQ-ITC analysis software.
# [1] = biological target: TRIM66-WT_(965-1160) (human) (UniProt O15016); experiment: ITC; 0.7–4 mM peptide injected into a cell with 0.05 or 0.11–[…] TRIM66-PHD-Bromo (or its mutants), 0.12 mM TRIM24-PHD-Bromo or 0.05 mM TRIM33 PHD-Bromo; 25 °C; 20 mM Tris, 100 mM NaCl, pH 7.5; MicroCal PEAQ-ITC; single measurement
# [2] = biological target: TRIM66-WT_(965-1160) (PHD-Bromodomain) (human) (UniProt O15016); experiment: ITC; MicroCal PEAQ-ITC, 25 °C, 20 mM Tris, 100 mM NaCl, pH 7.5; 0.7-4 mM peptide injected into the cell with 0.12 mM TRIM24-PHD-Bromo, 0.05 mM TRIM33 PHD-Bromo, or 0.05 or 0.11-[…] TRIM66-PHD-Bromo (or its mutants); single measurement, errors from the fitting curve
# [3] = biological target: TRIM66-GSGS_(968-1160) (PHD-Bromodomain) (human) (UniProt O15016); experiment: as above
# [4] = biological target: T2, TRIM33_(882-1087) (PHD-Bromodomain); experiment: ITC; MicroCal PEAQ-ITC, 25 °C, 20 mM Tris, 100 mM NaCl, pH 7.5; 0.7-4 mM peptide injected into the cell with 0.12 mM TRIM24-PHD-Bromo, 0.05 mM TRIM33 PHD-Bromo, or 0.05 or 0.11-0.15 mM TRIM66-PHD-Bromo (or its mutants); single measurement, errors from the fitting curve; conditions: both partners purified
# [5] = biological target: T3, TRIM24_(824-1006) (PHD-Bromodomain); experiment: as above; conditions: both partners purified
# TRIM24_(824-1006) = biological target: T4, TRIM24_(824-1006); experiment: ITC; 0.7–4 mM peptide injected into a cell with 0.05 or 0.11–0.15 mM TRIM66-PHD-Bromo (or its mutants), 0.12 mM TRIM24-PHD-Bromo or 0.05 mM TRIM33 PHD-Bromo; 25 °C; 20 mM Tris, 100 mM NaCl, pH 7.5; MicroCal PEAQ-ITC; single measurement; conditions: both partners purified
# TRIM33_(882-1087) = biological target: T5, TRIM33_(882-1087); experiment: as above; conditions: both partners purified
# [6] = ITC, 25 °C, pH 7.5, single measurement
molecule,measurement,setting,value
CNCCCC[C@H](NC(=O)[C@@H](NC(=O)[C@H](CCCNC(=N)N)NC(=O)[C@H](C)N)[C@@H](C)O)C(=O)N[C@@H](CCC(N)=O)C(=O)N[C@H](C(=O)N[C@@H](C)C(=O)N[C@@H](CCCNC(=N)N)C(=O)N[C@@H](CCCCN)C(=O)N[C@@H](CO)C(=O)N[C@H](C(=O)NCC(=O)O)[C@@H](C)O)[C@@H](C)O [H3K4me1],Kd,TRIM66-WT965-1160; [6],42.8 ± 2.45 µM
CNC(=N)NCCC[C@H](NC(=O)[C@H](C)N)C(=O)N[C@H](C(=O)N[C@@H](CCCCN)C(=O)N[C@@H](CCC(N)=O)C(=O)N[C@H](C(=O)N[C@@H](C)C(=O)N[C@@H](CCCNC(=N)N)C(=O)N[C@@H](CCCCN)C(=O)N[C@@H](CO)C(=O)N[C@H](C(=O)NCC(=O)O)[C@@H](C)O)[C@@H](C)O)[C@@H](C)O [H3R2me1],Kd,TRIM66-WT965-1160; [6],72.4 ± 3.27 µM
C[C@H](N)C(=O)N[C@@H](CCCNC(=N)N(C)C)C(=O)N[C@H](C(=O)N[C@@H](CCCCN)C(=O)N[C@@H](CCC(N)=O)C(=O)N[C@H](C(=O)N[C@@H](C)C(=O)N[C@@H](CCCNC(=N)N)C(=O)N[C@@H](CCCCN)C(=O)N[C@@H](CO)C(=O)N[C@H](C(=O)NCC(=O)O)[C@@H](C)O)[C@@H](C)O)[C@@H](C)O [H3R2me2a],Kd,TRIM66-WT965-1160; [6],110 ± 11.9 µM
ARTKQTARKSTGGKALREIRRYQK(Ac)S [H3(1-15)-(48-57)K56ac],binding (in words),"TRIM66-WT965-1160; ITC, 25 °C, pH 7.5",higher affinity than that for the individual peptides
same,-T△S,TRIM66-WT965-1160; [6],6.91 kcal per mol
same,N (stoichiometry),TRIM66-WT965-1160; [6],1.17±0.01
same,△H,TRIM66-WT965-1160; [6],-15.5±0.15 kcal per mol
same,fold higher affinity than for the H3_1-12 peptide,TRIM66-WT965-1160; ratio of KD,30 fold
same,fold higher affinity than for the H3_48-57K56ac peptide,TRIM66-WT965-1160; ratio of KD,210 fold
H3K4me2: dimethylated H3K4 peptide,KD,TRIM66-WT965-1160; [6],Weak binding
H3K4me3: trimethylated H3K4 peptide,KD,TRIM66-WT965-1160; [6],Weak binding
H3_(1-12)K4me1 peptide (from UniProt P68431 2-13),Kd,[1],42.8 µM
same,stoichiometry N,[2],1.1
H3_(1-12)R2me1 peptide (from UniProt P68431 2-13),Kd,[1],72.4 µM
same,stoichiometry N,[2],0.91
H3_(1-12)R2me2a peptide (from UniProt P68431 2-13),Kd,[1],110 µM
same,stoichiometry N,[2],0.98
H3_(48-57)K56ac peptide (from UniProt P68431 49-58),Kd,[1],109 µM
same,Kd,[3],127 µM
same,stoichiometry N,[3],1.23
same,stoichiometry N,[2],1.07
H3_((1-15)-(48-57))K56ac peptide (from UniProt P68431 2-16; P68431 49-58),Kd,[1],0.52 µM
same,stoichiometry N,[2],1.17
"A[Arg(Me)]TKQTARKSTG (peptide, UniProt P68431 2-13, looked up, histone H3.1, Homo sapiens, residues 1-12; also called H3R2me1; source: synthetic peptide (GL Biochem))",stoichiometry N,[4],0.8
same,stoichiometry N,[5],0.93
"A[Arg(Me)]TKQTARKSTG (peptide, UniProt P68431 2-13, looked up, histone H3, residues 1-12; also called H3R2me1; monomethylated H3R2; source: synthetic peptide (GL Biochem, Shanghai))",Kd,TRIM24_(824-1006),72.7 µM
same,Kd,TRIM33_(882-1087),5.1 µM
"A[Arg(Me2a)]TKQTARKSTG (peptide, UniProt P68431 2-13, looked up, histone H3, residues 1-12; also called H3R2me2a; asymmetrically dimethylated H3R2; source: synthetic peptide (GL Biochem, Shanghai))",Kd,TRIM24_(824-1006),76.8 µM
same,Kd,TRIM33_(882-1087),6.23 µM
"A[Arg(Me2a)]TKQTARKSTG (peptide, UniProt P68431 2-13, looked up, histone H3.1, Homo sapiens, residues 1-12; also called H3R2me2a; source: synthetic peptide (GL Biochem))",stoichiometry N,[4],1.06
same,stoichiometry N,[5],0.86

# From publication PMC6753139, “TRIM66 reads unmodified H3R2K4 and H3K56ac to respond to DNA damage in embryonic stem cells” (Nature Communications, 2019)
